In US20180036364A1, “METHODS OF TREATING CANCER WITH A PSMA LIGAND-TUBULYSIN COMPOUND” (priority 2015, published 2018):

Legend:
Type in all cases: in vivo, human
[1] = Phase 1 dose-escalation study: pharmacokinetics; details: mCRPC patients, IV bolus
Protocol: (§1) This is a Phase 1, multicenter, open-label, non-randomized, dose-escalation oncology study in which EC1169 was dosed three times weekly (TIW), on Weeks 1 and 2 of a 3-week schedule or once weekly dosing (QW) on Weeks 1 and 2 of a 3-week schedule to assess toxicity, safety and preliminary efficacy results in patients with metastatic, castration-resistant prostate cancer (mCRPC) who have progressed on abiraterone and/or enzalutamide, and have been previously treated with a taxane except in cases of contraindication (e.g. poor performance status, age or personal choice). Patients were also dosed with 99mTc-EC0652 and underwent a SPECT/CT scan (or SPECT scan if no SPECT/CT is available) to evaluate EC0652 as an imaging agent to identify PSMA expression.
(§2) II. PSMA-Tubulysin Compound I Administration: PSMA ligand-tubulysin compound I was administered at least 4 days after PSMA Imaging Agent Ma was administered, as an intravenous bolus injection, TIW on Weeks 1 and 2 (i.e., on Days 1, 3, 5, 8, 10, 12 of a 3-week cycle) or once weekly on Weeks 1 and 2 of a 3-week schedule.

[2] = Phase 1 dose-escalation study: toxicity and safety
Protocol: as §1
Prior dose escalation methodology for both schedules was based the continuous reassessment method (CRM), in which 1 patient is assigned to 1 dose level. Subsequent patients were to be enrolled upon the first observation of DLT, at which time enrollment to that dose level would be expanded to a maximum of 6 patients. An alternative dose escalation methodology for both schedules was based upon the standard “3+3” approach, in which a minimum of 3 patients is enrolled to a given dose level. Following the first observation of a DLT, the dose level is then expanded to a maximum of 6 patients.
Patients received an injection of 0.1 mg of PSMA Imaging Agent IIa labeled with 20-25 mCi of technetium-^99m (PSMA Imaging Agent Ma). Patients were subjected to SPECT/CT imaging of the region(s) known to contain target lesion(s) approximately 3-4 hours after injection of PSMA Imaging Agent Ma (^99mTc-EC0652). For sites where SPECT/CT imaging is not available, SPECT imaging alone was carried out.
as §2
DLTs will be based on events occurring in Part A during the first cycle of therapy and the adverse events must be drug related (i.e. definitely, probably or possibly): • ≧Grade 4 hematological toxicity. • Grade 3 neutropenia with fever>38.5° C. and/or infection requiring antibiotic or antifungal treatment. • Grade 3 neutropenia persisting for >5 days. • Grade 3 thrombocytopenia with clinically significant hemorrhage requiring platelet transfusion. • ≧Grade 3 non-hematological toxicity. Grade 3 laboratory abnormalities (e.g., K or Mg) that persist for less than 48 hours are not considered DLTs. • Grade 3 nausea, vomiting lasting more than 72 hours. • A delay of >2 weeks in the scheduled administration of Compound I due to drug-related toxicity.
• Schedule #1: TIW Dosing Schedule: Inability to administer at least 4 of the 6 scheduled doses of PSMA ligand-tubulysin compound I in a cycle due to drug-related toxicity. • Schedule #2: Once Weekly Dosing Schedule: Inability to administer both scheduled doses of PSMA ligand-tubulysin compound I in a cycle due to drug-related toxicity.
PSMA imaging conjugate IIIa and PSMA ligand-tubulysin compound I was administered via IV bolus injection.

[3] = test system: metastatic, castration-resistant prostate cancer (mCRPC); experiment: Phase 1 dose-escalation study: preliminary efficacy; details: 21 mCRPC patients
Text: In one aspect, a clinical benefit of the patient to treatment with PSMA ligand-tubulysin compound I can be characterized utilizing Response Evaluation Criteria in Solid Tumors (RECIST) criteria. Illustratively, the criteria have been adapted from the original WHO Handbook (3), taking into account the measurement of the longest diameter for all target lesions: complete response, (CR)—the disappearance of all target lesions; partial response (PR)—at least a 30% decrease in the sum of the longest diameter of target lesions, taking as reference the baseline sum longest diameter; stable disease (SD)—neither sufficient shrinkage to qualify for partial response nor sufficient increase to qualify for progressive disease, taking as reference the smallest sum longest diameter since the treatment started; progressive disease (PD)—at least a 20% increase in the sum of the longest diameter of target lesions, taking as reference the smallest sum longest diameter recorded since the treatment started or the appearance of one or more new lesions. In another aspect overall disease response rate (ORR) is a clinical benefit and is calculated as the percent of patients who achieve a best response of CR or PR. Overall disease control rate (DCR) can be another clinical benefit and is calculated as the percent of patients who achieve a best response of CR, PR, or SD. […]

[4] = 21 mCRPC patients, both schedules

CCCC(=O)OCN(C(=O)[C@@H](NC(=O)[C@H]1CCCCN1C)C(C)CC)[C@H](C[C@@H](OC(C)=O)c1nc(C(=O)N[C@@H](Cc2ccc(O)cc2)C[C@H](C)C(=O)NNC(=O)OCCSSC[C@H](NC(=O)[C@H](CC(=O)O)NC(=O)[C@H](CC(=O)O)NC(=O)Cc2ccc(CNC(=O)NCCCC[C@H](NC(=O)N[C@@H](CCC(=O)O)C(=O)O)C(=O)O)cc2)C(=O)O)cs1)C(C)C (some centres unmarked) [EC1169]
AUC [1]: Dose proportionate increases
Cmax [1]: Dose proportionate increases
DR Grade 3-4 toxicity or serious adverse events [2, 4]: no
on-study deaths [2, 4]: no
occurrences of dose limiting toxicity ([2]; 21 mCRPC patients, both schedules, cycle 1): no
patients with drug-related (DR) adverse events (AE's) ([2]; 21 patients evaluated for cycle 1 toxicity, both schedules, IV bolus): 9 of 21
drug-related adverse events occurring in >1 patient ([2]; Schedule #1 (TIW, Weeks 1 and 2 of 3-week cycle), 5 pts): No DRAE occurred in >1 Schedule #1 patient
drug-related adverse events reported in ≧2 patients ([2]; Schedule #2 (once weekly, Weeks 1 and 2 of 3-week cycle), 16 pts): Vomiting and fatigue were the only DRAE's
tolerability ([2]; mCRPC patients): well tolerated
patients with a 50% decrease in PSA [3]: No patient
patients with stable disease lasting more than 4 cycles [3]: 3 patients
